{
  "source": "patent US20090202556A1",
  "about": "(Kyowa Kirin, published 2009)",
  "key": {"[1]": {"target": "T1, human CLDN4 (Claudin-4) expressed by human cancer cell lines (Capan-2, HPAF-II, MCF7, HT-29, SW480, 22Rv1, DU … (human, UniProt O14493 1-209))", "T1 construct": "Endogenous protein on cell lines; MCF7 is said to express both CLDN3 and CLDN4; also called CLDN4 expressed in breast cancer cells, colorectal cancer cells and prostate cancer cells", "T1 sequence": "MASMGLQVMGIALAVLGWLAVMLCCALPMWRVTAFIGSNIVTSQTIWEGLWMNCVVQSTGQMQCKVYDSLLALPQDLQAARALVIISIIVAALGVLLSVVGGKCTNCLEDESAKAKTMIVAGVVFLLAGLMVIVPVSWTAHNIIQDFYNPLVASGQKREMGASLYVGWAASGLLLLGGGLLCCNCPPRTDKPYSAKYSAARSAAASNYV", "assay": "FCM on live MCF7 cells (express both CLDN3 and CLDN4), 5 µg/ml", "procedure": "(§1) Pancreatic cancer cell line Capan-2 which expresses CLDN4 was used as the evaluation cell of cKM3900, and a breast cancer cell line MCF7 which expresses both of CLDN3 and CLDN4 was used as the evaluation cell of cKM3907. The cells were cultured for 3 to 4 days and peeled off using 0.02% EDTA solution (manufactured by Nacalai Tesque) to recover the resulting cells. The thus recovered cells were washed with PBS and, in order to avoid nonspecific adsorption of antibodies, blocked using BSA-PBS at ice temperature for 30 minutes. The cells were dispensed at 1 to 5×10⁵ cells/100 μl BSA-PBS into a 96-well U bottom plate and centrifuged (1,500 rpm, 5 minutes), the supernatant was removed and then 5 μg/ml of a negative control antibody cKM3034 (anti-FGF8 human chimeric antibody) [US 2004/0091480], an anti-CLDN4 monoclonal antibody KM3900 or KM3907 or an anti-CLDN4 human chimeric antibody cKM3900 or cKM3907 was dispensed as the primary antibody at 100 μl/well and allowed to react at ice temperature for 60 minutes. […] After washing again once with PBS and subsequently suspending in PBS, the fluorescent intensity was measured by FCM (manufactured by Beckman Coulter)."}, "[2]": {"target": "T1, human CLDN4 (Claudin-4) expressed by …", "assay": "FCM on live Capan-2 cells (express CLDN4), 5 µg/ml", "procedure": "as §1"}},
  "data": [
    {"binder": "anti-CLDN4 human chimeric antibody cKM3907 (antibody, V domains shown, Human chimeric IgG: mouse V regions of KM3907 joined to the human CH and CL of vector pKANTEX93 (WO 97/10354); also called cKM3907-93 (expression vector)) VH: QVQLQQSGPELVKPGASVKISCKASGYAISTSWMNWVKQRPGKGLEWIGRINPGDGNTNYNGKFMAKATLTADKPSSTAYMQLSSLTSEDSAVYFCTRGDRWSGAMDYWGQGTSVTVSS VL: GNVLTQSPAIMSASPGEKVTMTCRASSSVSSSYLHWYQQKSGASPKLWIYSTSNLASGVPVRFSGSGSGTSYSLTISSVEAEDAATYYCQQYSGFPLTFGAGTKLELK", "values": [
      {"measurement": "binding result", "setting": "[1]", "result": "binds"}
    ]},
    {"binder": "anti-CLDN4 human chimeric antibody cKM3900 (antibody, V domains shown, Human chimeric IgG: mouse V regions of KM3900 joined to the human CH and CL of vector pKANTEX93 (WO 97/10354); also called cKM3900-93 (expression vector)) VH: EVQLQQSGPELVKPGASVKISCKASGYTFTDYYMNWVKQSHGKSLEWIGDVVPNNGVPTYNQKFKGKATLTVDKSSSTAYMELRSLTSEDSAVYYCARPHYYYAGRSGAMDYWGQGTSVTVSS VL: QIVLTQSPAIMSASLGERVTMTCTASSTVSSTYLHWYQQKPGSSPKLWIYSTSNLASGVPARFSGSGSGTSYSLTISSMEAEDAATYYCHQYHRSPPTFGGGTKLEIK", "values": [
      {"measurement": "binding result", "setting": "[2]", "result": "binds"}
    ]}
  ]
}
